These results are taken from article PMC9883682, “Fatty acids negatively regulate platelet function through formation of noncanonical 15‐lipoxygenase‐derived eicosanoids” (Pharmacology Research & Perspectives, 2023).

The term IC50 denotes the concentration that gives 50% inhibition. Usually Km stands for the substrate concentration at which the rate is half of its maximum. As usually defined, the kcat is the number of substrate molecules converted per active site and unit of time at saturation. Broadly, the kcat/Km is the turnover number divided by the Michaelis constant.

Common to all, as to assay type: biochemical
Data set [1] deals with T1, 12‐LOX (Homo sapiens, UniProt P18054).
T1 construct: gene ALOX12
T1 sequence (P18054 1-663): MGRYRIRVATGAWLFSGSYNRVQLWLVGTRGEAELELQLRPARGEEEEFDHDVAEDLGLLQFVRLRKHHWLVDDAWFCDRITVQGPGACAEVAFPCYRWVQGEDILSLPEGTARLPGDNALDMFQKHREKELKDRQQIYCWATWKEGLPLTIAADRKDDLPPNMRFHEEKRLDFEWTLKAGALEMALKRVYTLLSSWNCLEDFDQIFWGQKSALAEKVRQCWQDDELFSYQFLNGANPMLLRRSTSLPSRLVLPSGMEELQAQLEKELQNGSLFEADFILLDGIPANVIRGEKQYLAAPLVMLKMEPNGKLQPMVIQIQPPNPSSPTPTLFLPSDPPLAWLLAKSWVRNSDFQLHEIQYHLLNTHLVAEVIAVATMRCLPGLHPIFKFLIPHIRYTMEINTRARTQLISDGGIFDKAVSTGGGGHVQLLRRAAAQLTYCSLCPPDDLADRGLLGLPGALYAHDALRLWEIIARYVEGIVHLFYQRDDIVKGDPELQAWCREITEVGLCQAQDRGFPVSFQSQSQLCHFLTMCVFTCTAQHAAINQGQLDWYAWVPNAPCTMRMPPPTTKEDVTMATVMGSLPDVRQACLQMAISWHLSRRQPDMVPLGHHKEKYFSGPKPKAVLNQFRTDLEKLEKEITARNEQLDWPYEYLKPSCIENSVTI
Briefly: inhibition of purified recombinant 12-LOX with […] AA as substrate.

Substrate in data set [2]: CC/C=C\C[C@@H](/C=C/C=C\C/C=C\C/C=C\CCCC(=O)O)OO
Briefly: steady-state UV kinetics with purified human 12-LOX (kM); LC-MS product profile. To be noted: also described as a […]‐LOX allosteric regulator that affects secondary product formation.

Substrate in data set [3]: CCCCC[C@@H](/C=C/C=C\C/C=C\C/C=C\CCCC(=O)O)OO
The data set is described as above.

Substrate in data set [4]: CCCCC[C@@H](/C=C/C=C\C/C=C\CCCCCCC(=O)O)OO
The data set is described as above.

Substrate in data set [5]: CC/C=C\C/C=C\C/C=C\C/C=C\C/C=C\CCCC(=O)O
Briefly: steady-state UV kinetics with purified human 12-LOX (kM).

Substrate in data set [6]: CCCCC/C=C\C/C=C\C/C=C\C/C=C\CCCC(=O)O
The data set is described as above.

Substrate in data set [7]: CCCCC/C=C\C/C=C\C/C=C\CCCCCCC(=O)O
The data set is described as above.

As for `CC/C=C\C[C@H](O)/C=C/C=C\C/C=C\C/C=C\CCCC(=O)O` [15‐HEPE], the IC50 in data set [1] is 142 ± 11 µM.

As for `CCCCC[C@H](O)/C=C/C=C\C/C=C\C/C=C\CCCC(=O)O` [15‐HETE], the IC50 in data set [1] stood at 46 ± 19 µM.

For the molecule `CCCCC[C@H](O)/C=C/C=C\C/C=C\CCCCCCC(=O)O` [15‐HETrE], the IC50 in data set [1] is 105 ± 55 µM.

B1: 12‐LOX (Homo sapiens) (protein)
chain: MGRYRIRVATGAWLFSGSYNRVQLWLVGTRGEAELELQLRPARGEEEEFDHDVAEDLGLLQFVRLRKHHWLVDDAWFCDRITVQGPGACAEVAFPCYRWVQGEDILSLPEGTARLPGDNALDMFQKHREKELKDRQQIYCWATWKEGLPLTIAADRKDDLPPNMRFHEEKRLDFEWTLKAGALEMALKRVYTLLSSWNCLEDFDQIFWGQKSALAEKVRQCWQDDELFSYQFLNGANPMLLRRSTSLPSRLVLPSGMEELQAQLEKELQNGSLFEADFILLDGIPANVIRGEKQYLAAPLVMLKMEPNGKLQPMVIQIQPPNPSSPTPTLFLPSDPPLAWLLAKSWVRNSDFQLHEIQYHLLNTHLVAEVIAVATMRCLPGLHPIFKFLIPHIRYTMEINTRARTQLISDGGIFDKAVSTGGGGHVQLLRRAAAQLTYCSLCPPDDLADRGLLGLPGALYAHDALRLWEIIARYVEGIVHLFYQRDDIVKGDPELQAWCREITEVGLCQAQDRGFPVSFQSQSQLCHFLTMCVFTCTAQHAAINQGQLDWYAWVPNAPCTMRMPPPTTKEDVTMATVMGSLPDVRQACLQMAISWHLSRRQPDMVPLGHHKEKYFSGPKPKAVLNQFRTDLEKLEKEITARNEQLDWPYEYLKPSCIENSVTI
As for B1, the Km in data set [2] turned out to be 9.2 ± 1 µM; in data set [3], 5.8 ± 0.4 µM; in data set [4], 11 ± 1 µM; in data set [5], 1 ± 0.2 µM; in data set [6], 0.49 ± 0.07 µM; in data set [7] it was 2.5 ± 0.2 µM. Further, the kcat in data set [2] came to 0.93 ± 0.06 s⁻¹; in data set [3], 1.5 ± 0.05 s⁻¹; in data set [4], 0.96 ± 0.05 s⁻¹; in data set [5], 9 ± 0.5 s⁻¹; in data set [6], 11 ± 0.2 s⁻¹; in data set [7], 12 ± 0.3 s⁻¹. The kcat/Km was 100000 ± 8000 M⁻¹ s⁻¹ in data set [2]; 260000 ± 1000 M⁻¹ s⁻¹ in data set [3]; 86000 ± 4000 M⁻¹ s⁻¹ in data set [4]; 8.7e+06 ± 1.2e+06 M⁻¹ s⁻¹ in data set [5]; 2.2e+07 ± 3e+06 M⁻¹ s⁻¹ in data set [6]; 4.9e+06 ± 300000 M⁻¹ s⁻¹ in data set [7].
